Source: article PMC8591536, “DNA asymmetry promotes SUMO modification of the single‐stranded DNA‐binding protein RPA” (The EMBO Journal, 2021)
Values belong to the binder of their own block, whether it stands above or below them.

How the values were obtained:
[1] = target: T1, replication protein A (RPA): Rfa1(1–621), His6-Rfa2(1–273), Rfa3(1–122) (budding yeast, UniProt P22336 1-621; P26754 1-273; P26755 1-122); experiment: native gel or EMSA; 10 nM 6-FAM-ds20ss32 DNA pre-bound to RPA, RPA∆WH or SUMO-RPA, serially diluted full-length Siz2; 25 min at 23°C; 20 mM HEPES pH 7.5, 125 mM NaCl, 0.1% Tween-20, 5 mM MgCl2; native 6% polyacrylamide gel in 0.5x TBE; apparent Kd; conditions: both partners purified
T1 construct: Rfa1 subunit of RPA, budding yeast, residues 1-621, tagless; Rfa2 subunit of RPA, budding yeast, residues 1-273, noncleavable N-terminal hexahistidine tag; Rfa3 subunit of RPA, budding yeast, residues 1-122, tagless; also called wild-type RPA; source: E. coli BL21 (DE3) CodonPlus RIL, co-expressed, purified (Ni-NTA, HiTrap Heparin, Superdex200); not shown: His6, N-terminal, kept; copies: + +
T1 sequence (P22336 whole entry, chain 1 of 3, the tested form may be a part): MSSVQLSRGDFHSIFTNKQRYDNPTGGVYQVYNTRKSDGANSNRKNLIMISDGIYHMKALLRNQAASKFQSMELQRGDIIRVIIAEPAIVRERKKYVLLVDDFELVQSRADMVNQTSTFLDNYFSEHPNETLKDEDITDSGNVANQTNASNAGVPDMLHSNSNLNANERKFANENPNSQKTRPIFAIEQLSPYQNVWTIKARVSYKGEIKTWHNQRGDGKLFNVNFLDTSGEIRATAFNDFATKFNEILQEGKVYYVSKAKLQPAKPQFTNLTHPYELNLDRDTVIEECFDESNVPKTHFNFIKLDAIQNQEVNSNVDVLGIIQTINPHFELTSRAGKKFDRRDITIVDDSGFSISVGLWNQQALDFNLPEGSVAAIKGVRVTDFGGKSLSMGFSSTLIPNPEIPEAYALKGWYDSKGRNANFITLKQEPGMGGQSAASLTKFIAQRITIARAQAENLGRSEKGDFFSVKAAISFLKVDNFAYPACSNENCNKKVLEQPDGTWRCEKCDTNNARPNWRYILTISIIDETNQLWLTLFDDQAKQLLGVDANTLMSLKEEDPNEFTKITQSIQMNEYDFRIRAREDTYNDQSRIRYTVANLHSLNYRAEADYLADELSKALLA
T1 sequence (P26754 whole entry, chain 2 of 3, the tested form may be a part): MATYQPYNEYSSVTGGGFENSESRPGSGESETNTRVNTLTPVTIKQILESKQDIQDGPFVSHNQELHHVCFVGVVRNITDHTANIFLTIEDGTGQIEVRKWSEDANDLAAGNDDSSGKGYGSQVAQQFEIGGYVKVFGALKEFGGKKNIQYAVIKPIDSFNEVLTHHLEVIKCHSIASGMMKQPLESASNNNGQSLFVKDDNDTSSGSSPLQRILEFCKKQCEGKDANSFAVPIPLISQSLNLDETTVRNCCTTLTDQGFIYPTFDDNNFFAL
T1 sequence (P26755 whole entry, chain 3 of 3, the tested form may be a part): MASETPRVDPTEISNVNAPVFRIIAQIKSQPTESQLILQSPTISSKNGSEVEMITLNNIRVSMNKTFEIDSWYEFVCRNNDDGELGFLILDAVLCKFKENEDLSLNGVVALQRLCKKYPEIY

[2] = target: T2, RPA reconstituted with ∆WH-Rfa2: Rfa1(1–621), His6-Rfa2(1–205), Rfa3(1–122) (budding yeast, UniProt P22336 1-621; P26754 1-205; P26755 1-122); experiment: as above; conditions: both partners purified
T2 construct: Rfa1 subunit of RPA, budding yeast, residues 1-621, tagless; Rfa2 subunit of RPA, budding yeast, residues 1-205 (winged helix domain removed), noncleavable N-terminal hexahistidine tag; Rfa3 subunit of RPA, budding yeast, residues 1-122, tagless; The purification of this variant is not described on its own; also called RPA∆WH; RPA lacking the WH domain of Rfa2; source: E. coli BL21 (DE3) …
T2 sequence (P22336 whole entry, chain 1 of 3, the tested form may be a part): as the sequence (P22336 whole entry, chain 1 of 3, the tested form may be a part) above
T2 sequence (P26754 1-205, chain 2 of 3): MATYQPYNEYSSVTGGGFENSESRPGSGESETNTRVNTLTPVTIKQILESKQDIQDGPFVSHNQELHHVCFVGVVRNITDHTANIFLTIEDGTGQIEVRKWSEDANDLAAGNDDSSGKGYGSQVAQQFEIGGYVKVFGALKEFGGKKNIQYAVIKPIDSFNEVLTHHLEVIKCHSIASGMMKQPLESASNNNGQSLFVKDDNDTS
T2 sequence (P26755 whole entry, chain 3 of 3, the tested form may be a part): as the sequence (P26755 whole entry, chain 3 of 3, the tested form may be a part) above

[3] = target: T3, Siz2∆CT (Saccharomyces cerevisiae? (budding …, UniProt Q12216 1-420)); experiment: fluorescence polarization; FP: 20 mM HEPES pH 7.5, 125 mM NaCl, 0.1% Tween-20, 23°C, 50 nM DNA (RPA/SUMO-RPA on ss32: 1 nM DNA, plus 5 mM MgCl2, 1 mM DTT); EMSA: same buffer with 5 mM MgCl2 (Fig 8 also 1 mM DTT), 23°C, 6% gel in 0.5x TBE; conditions: protein: recombinant; tags: His6-thioredoxin removed with TEV; label: 5' 6-FAM on strand 1; blunt
T3 sequence: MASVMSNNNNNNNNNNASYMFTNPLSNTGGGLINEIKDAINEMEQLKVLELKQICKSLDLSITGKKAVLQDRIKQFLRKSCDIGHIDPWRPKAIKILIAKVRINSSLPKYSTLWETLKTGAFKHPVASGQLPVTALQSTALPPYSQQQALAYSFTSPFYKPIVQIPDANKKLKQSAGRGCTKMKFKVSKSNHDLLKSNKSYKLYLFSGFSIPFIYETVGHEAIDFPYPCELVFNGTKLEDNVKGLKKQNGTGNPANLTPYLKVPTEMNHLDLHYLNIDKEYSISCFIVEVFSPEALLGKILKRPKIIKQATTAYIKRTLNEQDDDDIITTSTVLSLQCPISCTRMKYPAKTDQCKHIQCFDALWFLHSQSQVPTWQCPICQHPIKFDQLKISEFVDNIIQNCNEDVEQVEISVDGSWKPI

[4] = target: T1, replication protein A (RPA): …; experiment: fluorescence polarisation; 50 nM 5'-fluorescein-labelled DNA in complex with RPA or RPA∆WH, serially diluted Siz2∆CT; 23°C; 20 mM HEPES pH 7.5, 125 mM NaCl, 0.1% Tween-20; apparent Kd, single-site model with ligand depletion; conditions: both partners purified
[5] = target: T2, RPA reconstituted with ∆WH-Rfa2: …; experiment: as above; conditions: both partners purified
[6] = target: RPA (Rfa1/Rfa2/Rfa3) (Saccharomyces cerevisiae? (budding …, UniProt P22336;P26754;P26755 1-621;1-273;1-122)); experiment: fluorescence polarization; 5 mM MgCl2; FP: 20 mM HEPES pH 7.5, 125 mM NaCl, 0.1% Tween-20, 23°C, 50 nM DNA (RPA/SUMO-RPA on ss32: 1 nM DNA, plus 5 mM MgCl2, 1 mM DTT); EMSA: same buffer with 5 mM MgCl2 (Fig 8 also 1 mM DTT), 23°C, 6% gel in 0.5x TBE; conditions: protein: recombinant; tags: noncleavable N-terminal His6 on Rfa2; copies: 1;1;1; label: 5' 6-FAM; single strand
RPA (Rfa1/Rfa2/Rfa3) (Saccharomyces cerevisiae?, sequence (P22336 whole entry, chain 1 of 3): as the sequence (P22336 whole entry, chain 1 of 3, the tested form may be a part) above
RPA (Rfa1/Rfa2/Rfa3) (Saccharomyces cerevisiae?, sequence (P26754 whole entry, chain 2 of 3): as the sequence (P26754 whole entry, chain 2 of 3, the tested form may be a part) above
RPA (Rfa1/Rfa2/Rfa3) (Saccharomyces cerevisiae?, sequence (P26755 whole entry, chain 3 of 3): as the sequence (P26755 whole entry, chain 3 of 3, the tested form may be a part) above

binding result [1]: binds
binding result [2]: binds
B1: Siz2(1–726) (enzyme, budding yeast, UniProt Q12216 1-726, looked up)
chain: MASVMSNNNNNNNNNNASYMFTNPLSNTGGGLINEIKDAINEMEQLKVLELKQICKSLDLSITGKKAVLQDRIKQFLRKSCDIGHIDPWRPKAIKILIAKVRINSSLPKYSTLWETLKTGAFKHPVASGQLPVTALQSTALPPYSQQQALAYSFTSPFYKPIVQIPDANKKLKQSAGRGCTKMKFKVSKSNHDLLKSNKSYKLYLFSGFSIPFIYETVGHEAIDFPYPCELVFNGTKLEDNVKGLKKQNGTGNPANLTPYLKVPTEMNHLDLHYLNIDKEYSISCFIVEVFSPEALLGKILKRPKIIKQATTAYIKRTLNEQDDDDIITTSTVLSLQCPISCTRMKYPAKTDQCKHIQCFDALWFLHSQSQVPTWQCPICQHPIKFDQLKISEFVDNIIQNCNEDVEQVEISVDGSWKPIHNSSAVITDTVNQNHSVKNENQGTVKQEQDYDSRNAFDTNLRNGSNHNEPEIISLDSSDDEAFIPASKSFPTHVNPRNDQLRADIFPSESEGSSDYNPNHTSTPKGSPTMDQDNYQDAFQMRSFLNQGATTNINDTPTNNSSINSFVTATNGDSRIFYNRGPSTPLLPAVLQNLTNQTEAQRNPYGPNYNTTAQDRNLLGIEGDLPPIPPVDPNSEAETELPTRTTSAAHLPPYIHVSTSGHGDDGKIRKRRHSNVSIYIPKNPYATLMKRRPQANHAIMNKTLAQTNDFNTSAQDNSEVVDLTSD
notes: SUMO E3 ligase Siz2, budding yeast, full length; cloned as Siz2(1–726), called Siz2(1–727) in the purification paragraph; also called full-length Siz2; Siz2(1–727); source: E. coli BL21 (DE3) CodonPlus RIL, purified (Ni-NTA, HiTrap Heparin, Ulp1 cleavage, Ni-NTA, Superdex200)

B2: 6-FAM-ds20 (dsDNA)
DNA 1: GCTGTAGCTAGTTTTGCTTC
DNA 2: GAAGCAAAACTAGCTACAGC
binding result [3]: binds

binding result [4]: binds
binding result [5]: binds
B3: Siz2(1–420) (domain or fragment, budding yeast, UniProt Q12216 1-420, looked up)
chain: MASVMSNNNNNNNNNNASYMFTNPLSNTGGGLINEIKDAINEMEQLKVLELKQICKSLDLSITGKKAVLQDRIKQFLRKSCDIGHIDPWRPKAIKILIAKVRINSSLPKYSTLWETLKTGAFKHPVASGQLPVTALQSTALPPYSQQQALAYSFTSPFYKPIVQIPDANKKLKQSAGRGCTKMKFKVSKSNHDLLKSNKSYKLYLFSGFSIPFIYETVGHEAIDFPYPCELVFNGTKLEDNVKGLKKQNGTGNPANLTPYLKVPTEMNHLDLHYLNIDKEYSISCFIVEVFSPEALLGKILKRPKIIKQATTAYIKRTLNEQDDDDIITTSTVLSLQCPISCTRMKYPAKTDQCKHIQCFDALWFLHSQSQVPTWQCPICQHPIKFDQLKISEFVDNIIQNCNEDVEQVEISVDGSWKPI
notes: SUMO E3 ligase Siz2, budding yeast, residues 1-420 (SAP, PINIT and SP-RING domains; C-terminal region removed); also called Siz2∆CT; source: E. coli BL21 (DE3) CodonPlus RIL, purified (Ni-NTA, TEV cleavage, Superdex75); not shown: His6, N-terminal, cleaved; thioredoxin, N-terminal, cleaved

B4: 6-FAM-ss32 (32dT) (ssDNA)
DNA: TTTTTTTTTTTTTTTTTTTTTTTTTTTTTTTT
Kd [6]: < 1 nM
